The labels stand for the following.
B3: Mad1 C-terminal domain (Mad1^CTD) homodimer, residues 597-718 (domain or fragment, human, UniProt Q9Y6D9 597-718, looked up)
chain: SSKEVAELKKQVESAELKNQRLKEVFQTKIQEFRKACYTLTGYQIDITTENQYRLTSLYAEHPGDCLIFKATSPSGSKMQLLETEFSHTVGELIEVHLRRQDSIPAFLSSLTLELFSRQTVA
notes: the C-terminal residue is Ala718; For NMR the same construct was made 15N-labelled or 2H,13C,15N-labelled in M9 minimal medium; also called wild-type Mad1^CTD; WT Mad1^CTD; source: E. coli Rosetta 2 (DE3), purified (Strep-Tactin, TEV cleavage, Resource Q, Superdex 75); not shown: double Strep, N-terminal, cleaved; His6, N-terminal, cleaved

Where no end group is shown, it is not given here. [ ]: non-standard residue; d: D form. pT = C[C@@H](OP(=O)(O)O)[C@H](N)C(=O)O; pS = N[C@@H](COP(=O)(O)O)C(=O)O

Data set [1] has as its target B3. Put plainly: AUC; sedimentation equilibrium; 20 µM Mad1^CTD with 20 or 40 µM Bub1^CD1 peptide; 20 mM HEPES pH 7.5, 100 mM NaCl, 1 mM TCEP; 20°C; two-species model. Particulars: both partners purified.
The target in another data set is T1, Mad1^CTD R630A (human, UniProt Q9Y6D9 597-718, R630A).
T1 construct: also called Mad1 R630A mutant; source: E. coli Rosetta 2 (DE3), purified (Strep-Tactin, TEV cleavage, Resource Q, Superdex 75); not shown: double Strep, N-terminal, cleaved; His6, N-terminal, cleaved
T1 sequence (looked up): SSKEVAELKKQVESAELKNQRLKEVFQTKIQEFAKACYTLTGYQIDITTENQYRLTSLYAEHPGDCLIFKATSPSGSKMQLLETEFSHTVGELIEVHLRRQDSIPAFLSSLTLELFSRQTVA
Put plainly: ITC; Bub1^CD1 peptide (0.3-1.5 mM) titrated into Mad1 (30-100 µM) in the cell; 20°C; 20 mM HEPES pH 7.5, 100 mM NaCl, 1 mM TCEP; single-site model; stoichiometry counted on dimeric Mad1^CTD. The settings on record: both partners purified.

Another data set concerns the target T2, Mad1^CTD I643A (human, UniProt Q9Y6D9 597-718, I643A).
T2 construct: also called alanine substitution of Ile643; source: E. coli Rosetta 2 (DE3), purified (Strep-Tactin, TEV cleavage, Resource Q, Superdex 75); not shown: double Strep, N-terminal, cleaved; His6, N-terminal, cleaved
T2 sequence (looked up): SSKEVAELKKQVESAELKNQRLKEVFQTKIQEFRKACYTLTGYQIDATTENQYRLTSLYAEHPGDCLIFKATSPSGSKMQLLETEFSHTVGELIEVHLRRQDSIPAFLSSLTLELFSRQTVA
The description is as above. Particulars: both partners purified.

The next data set addresses T3, Mad1^CTD R650A (human, UniProt Q9Y6D9 597-718, R650A).
T3 construct: also called alanine substitution of Arg650; source: E. coli Rosetta 2 (DE3), purified (Strep-Tactin, TEV cleavage, Resource Q, Superdex 75); not shown: double Strep, N-terminal, cleaved; His6, N-terminal, cleaved
T3 sequence (looked up): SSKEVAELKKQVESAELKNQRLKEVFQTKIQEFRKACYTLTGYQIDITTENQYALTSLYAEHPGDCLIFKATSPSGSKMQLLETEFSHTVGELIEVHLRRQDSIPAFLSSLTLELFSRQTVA
Described as above. The settings on record: both partners purified.

The target in data set [2] is T4, Mad1^CTD QRI triple mutant (Q627A, R650A, I643A) (human, UniProt Q9Y6D9 597-718, Q627A | I643A | R650A).
T4 construct: also called triple alanine mutant; source: E. coli Rosetta 2 (DE3), purified (Strep-Tactin, TEV cleavage, Resource Q, Superdex 75); not shown: double Strep, N-terminal, cleaved; His6, N-terminal, cleaved
T4 sequence (looked up): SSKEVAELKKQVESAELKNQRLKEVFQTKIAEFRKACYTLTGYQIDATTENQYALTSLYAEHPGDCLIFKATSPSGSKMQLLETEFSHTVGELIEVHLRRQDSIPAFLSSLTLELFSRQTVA
Described as above. Particulars: both partners purified.

Data set [3] addresses T5, Mad1^CTD QRRI quadruple mutant (Q627A, R630A, I643A, R650A) (human, UniProt Q9Y6D9 597-718, Q627A | R630A | I643A | R650A).
T5 construct: source: E. coli Rosetta 2 (DE3), purified (Strep-Tactin, TEV cleavage, Resource Q, Superdex 75); not shown: double Strep, N-terminal, cleaved; His6, N-terminal, cleaved
T5 sequence (looked up): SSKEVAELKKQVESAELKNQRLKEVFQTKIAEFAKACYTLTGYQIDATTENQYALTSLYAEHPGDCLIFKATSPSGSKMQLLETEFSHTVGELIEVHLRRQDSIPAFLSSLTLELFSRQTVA
Described as above. Particulars: both partners purified.

The target in the next data set is T6, Mad1^CTD R617A (human, UniProt Q9Y6D9 597-718, R617A).
T6 construct: also called R617A mutant of Mad1; source: E. coli Rosetta 2 (DE3), purified (Strep-Tactin, TEV cleavage, Resource Q, Superdex 75); not shown: double Strep, N-terminal, cleaved; His6, N-terminal, cleaved
T6 sequence (looked up): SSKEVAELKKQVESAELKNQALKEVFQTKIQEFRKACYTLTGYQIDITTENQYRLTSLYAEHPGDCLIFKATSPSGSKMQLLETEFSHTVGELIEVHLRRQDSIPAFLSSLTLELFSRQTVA
Described as above. Particulars: both partners purified.

A further data set deals with T7, Mad1^CTD K619A (human, UniProt Q9Y6D9 597-718, Substituting Ala for Lys619).
T7 construct: also called Ala for Lys619; source: E. coli Rosetta 2 (DE3), purified (Strep-Tactin, TEV cleavage, Resource Q, Superdex 75); not shown: double Strep, N-terminal, cleaved; His6, N-terminal, cleaved
T7 sequence (looked up): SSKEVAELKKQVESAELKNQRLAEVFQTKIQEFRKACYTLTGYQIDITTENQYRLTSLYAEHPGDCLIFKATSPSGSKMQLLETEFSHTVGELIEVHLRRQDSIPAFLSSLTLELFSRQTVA
The description is as above. The settings on record: both partners purified.

The target in another data set is T8, Mad1^CTD Q627A (human, UniProt Q9Y6D9 597-718, Q627A).
T8 construct: also called alanine substitution of Gln627; source: E. coli Rosetta 2 (DE3), purified (Strep-Tactin, TEV cleavage, Resource Q, Superdex 75); not shown: double Strep, N-terminal, cleaved; His6, N-terminal, cleaved
T8 sequence (looked up): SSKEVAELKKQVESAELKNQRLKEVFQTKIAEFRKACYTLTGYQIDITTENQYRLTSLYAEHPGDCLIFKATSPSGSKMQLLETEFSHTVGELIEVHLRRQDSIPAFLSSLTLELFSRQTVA
Described as above. The settings on record: both partners purified.

Data set [4] concerns the molecule itself. In words: AUC; sedimentation equilibrium; 20 µM Mad1^CTD with 20 or 40 µM Bub1^CD1 peptide; 20 mM HEPES pH 7.5, 100 mM NaCl, 1 mM TCEP; 20°C; two-species model.
Data set [5] concerns the molecule itself. Put plainly: SEC-MALS; 100 µl of purified protein at 0.5-2.0 mg/ml on Superdex 200 Increase 10/300 GL, 0.5 ml/min.

B1: phosphorylated Bub1^CD1 peptide with an additional N-terminal tryptophan (peptide)
peptide: WKVQP[pS]P[pT]VHTKEALGFIMNMFQAPTS
notes: additional N-terminal tryptophan, added to confirm the peptide concentration; Bub1 conserved domain 1 (CD1), human, stated as residues 455-479; also called Bub1^CD1 peptide with an N-terminal tryptophan residue; source: synthetic peptide (Designer Bioscience UK, 95% purity)
B1: in data set [1], the “stoichiometry N” value is 1 peptide per Mad1^CTD dimer.

B2: doubly phosphorylated Bub1^CD1 peptide (pSer459-pThr461) (peptide)
peptide: KVQP[pS]P[pT]VHTKEALGFIMNMFQAPTS
notes: Bub1 conserved domain 1 (CD1), human, stated as residues 455-479; also called pSer459-pThr461 peptide; source: synthetic peptide (Designer Bioscience UK, 95% purity)
For the molecule B2, the Kd was 10 µM with Mad1^CTD R630A; 14.5 µM in data set [2]; 25 µM in data set [3]; 3000 µM with Mad1^CTD R617A; 10 µM in the data set with Mad1^CTD K619A. For the same molecule, the binding result with Mad1^CTD I643A, with Mad1^CTD R650A and in the data set with Mad1^CTD Q627A was “binds” each time.

With B3, the “stoichiometry N” value in [4] turned out to be 2.

B4: Mad1^CTD L618A (domain or fragment, human, UniProt Q9Y6D9 597-718, looked up)
chain: SSKEVAELKKQVESAELKNQRAKEVFQTKIQEFRKACYTLTGYQIDITTENQYRLTSLYAEHPGDCLIFKATSPSGSKMQLLETEFSHTVGELIEVHLRRQDSIPAFLSSLTLELFSRQTVA
notes: Poorly expressed, aggregated easily, eluted broadly; the authors suspect mis-folding of the dimer; also called L618A mutant; source: E. coli Rosetta 2 (DE3), purified (Strep-Tactin, TEV cleavage, Resource Q, Superdex 75); not shown: double Strep, N-terminal, cleaved; His6, N-terminal, cleaved
For B4, the “stoichiometry N” value in data set [5] is 2.

B5: Mad1^CTD F629A (domain or fragment, human, UniProt Q9Y6D9 597-718, looked up)
chain: SSKEVAELKKQVESAELKNQRLKEVFQTKIQEARKACYTLTGYQIDITTENQYRLTSLYAEHPGDCLIFKATSPSGSKMQLLETEFSHTVGELIEVHLRRQDSIPAFLSSLTLELFSRQTVA
notes: Poorly expressed, prone to aggregate; the authors suspect a disrupted Mad1 conformation; also called F629A mutant; source: E. coli Rosetta 2 (DE3), purified (Strep-Tactin, TEV cleavage, Resource Q, Superdex 75); not shown: double Strep, N-terminal, cleaved; His6, N-terminal, cleaved
Turning to B5, the “stoichiometry N” value in data set [5] turned out to be 2.

For the origin of these results see paper PMC8391104, “Molecular mechanism of Mad1 kinetochore targeting by phosphorylated Bub1” (EMBO Reports, 2021).
